Entries after “also recorded” stand apart in the source; their conditions may differ.
B1: IFN-gamma: mouse recombinant IFN-gamma (protein, UniProt P01580 23-155, looked up)
Interferon gamma: HGTVIESLESLNNYFNSSGIDVEEKSLFLDIWRNWQKDGDMKILQSQIISFYLRLFEVLKDNQAISNNISVIESHLITTFFSNSKAKKDAFMSIAKFEVNNPQVQRQAFNELIRVVHQLLPESSLRKRKRSRC
B2: IL-4: murine rIL-4 (protein, UniProt P07750 21-140, looked up)
Interleukin-4: HIHGCDKNHLREIIGILNEVTGEGTPCTEMDVPNVLTATKNTTESELVCRASKVLRIFYLKHGKTPCLKKNSSVLMELQRLFRAFRCLDSSISCTMNESKSTSLKDFLESLKSIMQMDYS
B3: IL-1: Human recombinant IL-1-α (protein, UniProt P01583 113-271, looked up)
Interleukin-1 alpha: SAPFSFLSNVKYNFMRIIKYEFILNDALNQSIIRANDQYLTAAALHNLDEAVKFDMGAYKSSKDDAKITVILRISKTQLYVTAQDEDQPVLLKEMPEIPKTITGSETNLLFFWETHGTKNYFTSVAHPNLFIATKQDYWVCLAGGPPSITDFQILENQA

Assays:
5/2 cells = type: in vitro ADME, human
Method: 5/2 cells (10^6 cells in 10 ml HB 101 medium) were incubated with all-trans-[^3 H] retinol (10 uCe/ml). After 24 hours, retinoids were extracted from the washed cell pellet and unlabeled marker retinoids were added. The crude extract was loaded on an analytical reversed-phase C-18 column. Retinoids were eluted with the shown linear gradient of water/methanol/chloroform. The flow rate was 0.5 ml/min. DPM were determined with an on line scintillation counter. Reference retinoids were the all-trans forms of 0: 3,4-didehydroretinoic acid, 1: all-trans-retinoic acid, 2: 3,4-didehydroretinol, 3: retinol, 4: retinyl linoleate, 5: retinyl oleate, 6: retinyl palmitate. Shaded area corresponds to P3. Cross-hatched area corresponds to P1.
Lymphoblastoid 5/2 cells grown in the presence of 10^-6 M retinol were spiked with ^3 H-labeled retinol. After 16 hours the cell pellet was delipidated according to the method of McLean et al. and separated on a reversed phase C-18 HPLC column (FIG. 7). […] Three peaks, P1, P2 and P3, could not be immediately identified. One peak eluting at 36-39 minutes (corresponding 83% methanol 7% water) provisionally called P3, but now known as 14HRR, was unusual because unlike P1 eluting at 31-34 minutes, its relative amount increased when the retinol concentration was lowered or when retinol was given to the cells bound to RBP. […] Since HeLa cells contain 14HRR, these cells were also used. 50 ml of packed HeLa cells (10^10 cells) yielded 25 OD348nmunits of pure P3 after the following sequence of steps: 1. Growth in the presence of 10^-5 M retinol; 2. Extraction of cell pellet according to McClean et al. (13); 3. Preparative C-18 HPLC column eluted with a water/methanol gradient; 4. semipreparative C18 HPLC column eluted with a water/acetonitrile gradient; 5. analytical C4 column eluted with a water/methanol gradient.

T cells = assay: T cell activation and proliferation, retinol cofactor requirement; type: cell-based, murine
Method: They were seeded into 96-well flat-bottom plates at varying cellular densities in a final volume of 100 μl. In control experiments, cells were cultured in medium containing 10% FCS or 3% human serum and 5×10^-5 M 2ME. […] Cultures were carried out in duplicate. Plates were incubated at 37° C. in a humidified 5% CO2 atmosphere. Cellular proliferation was determined by [^3 H] thymidine uptake (0.5 uCi/well; New England Nuclear, Boston, Mass.) after the incubation times indicated for each experiment with a 4 hour labeling pulse. Cells were harvested onto glass filter and [^3 H]TdR incorporation was determined by liquid scintillation counting. The data presented are the means of duplicate or six replicate cultures. The restriction to duplicate measurements was necessary to conserve scarce 14HRR. […] Each experiment was repeated at least twice.

thymocytes = assay: Proliferation of anti-CD3 activated thymocytes in serum-free ITLB medium; type: cell-based, BALB/c mouse; settings: for ability of cytokine to replace retinol: absence of retinol; for growth-stimulating effect, anti-CD3, no Retinol / growth-stimulating effect, anti-CD3, 10^-6 M Retinol: 3 days, IL-1 10, IL-2 2, IL-4 5, IL-6 5, IFN-gamma 40, TNF-alpha 12, IL-2 + IL-4 2/5 U/ml; for growth-stimulating effect, anti-CD3, 10^-6 M Retinol: with 10^-6 M retinol (head), Retinol: stimulating agent none
Method: FIG. 14A: Purified BALB/c thymocytes were activated with immobilized anti-CD3e antibody and cultivated for four days in ITLB medium with or without retinol (3×10^-6 M), 14HRR (6×10^-7 M) (fresh 14HRR was added every 12 hours), human serum (3%) or FCS (10%) at the cellular densities shown. Proliferation was assayed by tritiated thymidine incorporation into cellular DNA.
FIG. 14B: BALB/c thymocytes (10^6 /ml) were added to microtiter plates coated with titrated amounts of anti-CD3e antibody with […] retinol or without, as indicated. Proliferation was measured in hexaduplicate wells on day 3 by ^3 H thymidine incorporation assay.
Purified thymocytes (5×10^5 cells/well) were stimulated by TCR crosslinking with immobilized anti-CD3e antibody (FIG. 15A) or 0.4 μg/ml Con A (FIG. 15B) in serum-free ITLB medium. The indicated amounts of retinoids were added either once at the beginning of the experiment (marked as "1×") or every 12 hours thereafter (marked as "6×"). DNA synthesis was measured after 72 hours by tritiated thymidine uptake as described.
Purified thymocytes (10^5 cells/well) were activated with anti-CD3 antibody in ITLB medium with or without retinol (3×10^-6 M), 14HRR (6×10^-7, added every 12 hours or human serum (3%)). DNA synthesis was measured daily by a 4 hour pulse of tritiated thymidine.
Thymocytes (5×10^4 /well) were activated by immobilized anti-CD3 mAb in medium ITLB. Retinol (2×10^-6 M) was added at initiation of culture, or delayed by 12 hours and 24 hours, respectively, or omitted altogether. ^3 H thymidine pulses of 4 hours were used to measure DNA synthesis of hexaduplicate wells.
Thymuses of 3 to 6-week-old BALB/c mice were teased in serum-free RPMI medium supplemented with 1% BSA, 10^-6 M linoleic acid and antibiotics. Depletion of accessory cells was achieved by two cycles of complement-dependent lysis with a mixture of anti-IA^d (5 μg/ml) and anti-IE^d (1:500 diluted ascites fluid). Briefly, cells were incubated on ice for 30 minutes with Ia antibodies, spun down, resuspended in 1:40 diluted rabbit complement, and incubated at 37° C. for 45 minutes. Incubations and two subsequent washes were carried out with RPMI medium containing 1% BSA. Cell viability was evaluated by trypan blue dye exclusion. To determine the extent of depletion of accessory cells, samples were stained with FITC-conjugated anti-Fc receptor antibody and analyzed by flow cytometry on a FACScan instrument (Becton Dickinson).
Cells were cultured in serum-free medium, referred to as ITLB, containing RPMI 1640 supplemented with 8×10^-7 M insulin (5 μg/ml), 7×10^-8 M transferrin (5 μg/ml), 2×10^-6 M linoleic acid, 2×10^-6 M delipidated BSA (0.12 mg/ml), 2 mM L-glutamine, 1 mM sodium pyruvate and antibiotics. They were seeded into 96-well flat-bottom plates at varying cellular densities in a final volume of 100 μl. In control experiments, cells were cultured in medium containing 10% FCS or 3% human serum and 5×10^-5 M 2ME. T cells and thymocytes were activated with immobilized, purified anti-mAb CD3e or by the addition of Con A in the presence or absence of different concentrations of retinoids. Unless indicated otherwise, retinoids were replenished every 12 hours to maintain a reasonably constant concentration of these labile compounds in culture. […] Cultures were carried out in duplicate. Plates were incubated at 37° C. in a humidified 5% CO2 atmosphere. Cellular proliferation was determined by [^3 H] thymidine uptake (0.5 uCi/well; New England Nuclear, Boston, Mass.) after the incubation times indicated for each experiment with a 4 hour labeling pulse.

| Molecule | ability to substitute for retinol in T cell activation (words) (T cells) | ability of cytokine to replace retinol (thymocytes) | growth-stimulating effect, anti-CD3, no Retinol (thymocytes) | growth-stimulating effect, anti-CD3, 10^-6 M Retinol (thymocytes) | further results |
| --- | --- | --- | --- | --- | --- |
| CC1=C(/C=C/C(C)=C/C=C/C(C)=C/CO)C(C)(C)CC=C1 [3,4-didehydroretinol] |  |  |  |  | detection as metabolite of retinol (5/2 cells): not detectable |
| TNF-alpha | cannot be satisfied by retinoic acid or interleukins 1, 2, 4 and 6, and TNF-alpha | none of the interleukins tested (IL-1, IL-2, IL-4 and IL-6) nor TNF-alpha are substitutes for retinol | 464 ± 95 CPM | 122,905 ± 11,577 CPM | ability of cytokine to replace retinol (thymocytes; listed as TNF-α): does not |
| IL-6: hrIL-6 |  | None of the four interleukins, IL-1, IL-2, IL-4 or IL-6, was capable of overcoming the requirement for retinal; also recorded: none of the interleukins tested (IL-1, IL-2, IL-4 and IL-6) nor TNF-alpha are substitutes for retinol | 1,005 ± 815 CPM | 130,590 ± 25,803 CPM |  |
| CC1=C(/C=C/C(C)=C/C=C/C(C)=C\CO)C(C)(C)CCC1 [13-cis-retinol] | can substitute for retinal |  |  |  | effectiveness relative to retinol (thymocytes; anti-CD3, 14HRR at 12 hour intervals): equally effective as all-trans retinol |
| CC1=C(/C=C/C(C)=C/C=C/C(C)=C/C(=O)O)C(C)(C)CC=C1 [3,4-didehydroretinol acid, 3,4-didehydroretinoic acid] |  |  |  |  | detection as metabolite of retinol (5/2 cells): not detectable |
| B1 | can substitute for retinol | can circumvent the retinol requirement and initiate durable proliferation in the absence of retinol or 14HRR | 81,876 ± 11,868 CPM | 220,359 ± 27,726 CPM | ability of cytokine to replace retinol (thymocytes; listed as interferon-gamma): can sustain thymocyte proliferation in the absence of retinol; also recorded: quite efficient in anti-CD3-mediated activation in the absence of retinol; effect of cytokine combined with retinol (thymocytes): strong additive effects; effect of cytokine combined with retinol (thymocytes; listed as Interferon-gamma): clear additive effect with retinol |
| B2 |  | None of the four interleukins, IL-1, IL-2, IL-4 or IL-6, was capable of overcoming the requirement for retinal; also recorded: none of the interleukins tested (IL-1, IL-2, IL-4 and IL-6) nor TNF-alpha are substitutes for retinol | 991 ± 105 CPM | 115,849 ± 20,630 CPM |  |
| B3 |  | None of the four interleukins, IL-1, IL-2, IL-4 or IL-6, was capable of overcoming the requirement for retinal; also recorded: none of the interleukins tested (IL-1, IL-2, IL-4 and IL-6) nor TNF-alpha are substitutes for retinol | 959 ± 30 CPM | 118,924 ± 3,051 CPM |  |

From patent publication US5814612A, “Retinol derivatives and uses thereof” (priority 1992, dated 1998)
